For orientation: Kd means the equilibrium constant for the complex coming apart. Low readings indicate tighter binding, high ones weaker binding. In general, koff refers to a measure of how fast the partners let go of each other.

Results on one molecule are retold here after article PMC2791020 (The Journal of Biological Chemistry, 2009).

In this assay the target is protein kinase A catalytic (C) subunit, wild type (UniProt P05132 2-351). Put plainly: SPR. On the technique in general: Surface plasmon resonance follows binding to a sensor surface in real time, without labels.

B1: RIIβAB, truncated PKA regulatory subunit RIIβ (domain or fragment)
chain: TRRASVCAEAYNPDEEEDDAESRIIHPKTDDQRNRLQEACKDILLFKNLDPEQMSQVLDAMFEKLVKEGEHVIDQGDDGDNFYVIDRGTFDIYVKCDGVGRCVGNYDNRGSFGELALMYNTPRAATITATSPGALWGLDRVTFRRIIVKNNAKKRKMYESFIESLPFLKSLEVSERLKVVDVIGTKVYNDGEQIIAQGDSADSFFIVESGEVRITMKRKGKSDIEENGAVEIARCLRGQYFGELALVTNKPRAASAHAIGTVKCLAMDVQAFERLLGPCMEIMKRNIATYEEQLV
Molecule B1 displayed a Kd of 2.9 nM and a koff of 0.000316 s⁻¹.
